Source: US20090111753A1, “Nogo-A Polypeptide Fragments, Variant Nogo Receptor-1 Polypeptides, and Uses Thereof” (Yale University, priority 2004, published 2009)
No end group written: not given here.

T1: AP-Lingo-1 (Homo sapiens, UniProt Q96FE5)
T1 construct: made in house; NgR mutants: COS-7
T1 sequence (Q96FE5 40-538 limits assumed): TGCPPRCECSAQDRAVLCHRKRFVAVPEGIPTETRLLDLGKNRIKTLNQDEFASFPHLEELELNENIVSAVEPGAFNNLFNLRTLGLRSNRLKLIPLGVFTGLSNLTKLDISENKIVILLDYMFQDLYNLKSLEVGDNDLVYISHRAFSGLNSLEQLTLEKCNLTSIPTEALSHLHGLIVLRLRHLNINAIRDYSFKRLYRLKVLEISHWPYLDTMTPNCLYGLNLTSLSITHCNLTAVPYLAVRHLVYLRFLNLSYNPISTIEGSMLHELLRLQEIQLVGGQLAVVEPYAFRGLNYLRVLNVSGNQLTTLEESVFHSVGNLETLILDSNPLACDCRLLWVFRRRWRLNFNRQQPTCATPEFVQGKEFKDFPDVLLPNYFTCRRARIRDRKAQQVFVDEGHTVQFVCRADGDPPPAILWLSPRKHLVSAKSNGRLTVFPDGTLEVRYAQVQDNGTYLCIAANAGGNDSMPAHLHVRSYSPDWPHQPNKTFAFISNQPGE

T2: AP-B4C (Homo sapiens, UniProt Q9NQC3)
T2 construct: a.a; 950-1018 (AmNg B4C); made in house; host or cells: AP ligand: HEK293T conditioned medium; NgR mutants: COS-7
T2 sequence (Q9NQC3 950-1018): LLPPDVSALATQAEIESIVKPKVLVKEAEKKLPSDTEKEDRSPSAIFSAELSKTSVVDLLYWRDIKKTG

T3: AP fusion protein with the B4C fragment of Amino-Nogo-A fused directly to Nogo-66 (human, UniProt Q9NQC3 1055-1120)
T3 construct: domain: Nogo-66; also called AP-B4C66; AP-B4C-66; not shown: alkaline phosphatase (AP), vector pcAP6
T3 sequence: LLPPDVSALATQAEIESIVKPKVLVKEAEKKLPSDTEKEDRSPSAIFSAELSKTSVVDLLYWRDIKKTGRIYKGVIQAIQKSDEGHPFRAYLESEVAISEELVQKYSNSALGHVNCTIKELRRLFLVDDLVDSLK

T4: AP-fused Amino-Nogo fragment B4C (a.a. 950-1018) (human, UniProt Q9NQC3 950-1018)
T4 construct: also called AmNg B4C; AP-B4C; not shown: alkaline phosphatase (AP), vector pcAP6
T4 sequence: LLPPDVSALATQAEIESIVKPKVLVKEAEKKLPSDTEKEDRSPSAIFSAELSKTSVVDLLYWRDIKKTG

T5: AP-Nogo-66 (UniProt Q9NQC3 1055-1120)
T5 construct: domain: Nogo-66; construct described elsewhere (Fournier 2001); also called AP-Ng66; Ng66; not shown: alkaline phosphatase (AP); construct described elsewhere
T5 sequence (looked up): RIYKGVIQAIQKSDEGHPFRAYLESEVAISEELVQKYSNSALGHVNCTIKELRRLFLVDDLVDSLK

T6: AP-Nogo66 (Homo sapiens, UniProt Q9NQC3)
T6 construct: made in house; NgR mutants: COS-7
T6 sequence (Q9NQC3 1055-1120 limits assumed): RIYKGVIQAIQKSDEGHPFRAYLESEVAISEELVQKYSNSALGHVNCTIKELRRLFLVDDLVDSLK


What was measured:
E13 chick DRG neurons = assay: AP fusion protein binding to dissociated E13 chick DRG neurons
From the text: FIG. 1E. Binding of AP fused Amino-Nogo fragments to dissociated E13 chick DRG neurons. Conditioned media from HEK293T cells containing AP fusion protein as indicated were applied to dissociated E13 chick DRG neurons and bound AP was stained.
If these Amino-Nogo fragments are to play a role in regulating neurite outgrowth then they would be expected to bind to neuronal processes. Previously, we have shown that AP-Nogo-66 binds to NgR on DRG processes (Fournier, A. E., et al., Nature 409:341-346 (2001)).

AP-Lingo-1 = molecular target: T1, AP-Lingo-1; assay: Binding of AP-Lingo-1 to COS-7 cells expressing NgR mutants; design: key: ++: WT level; +: weaker than wild type; trace binding; −: no binding; settings: AP-Lingo-1 10 nM; level of binding compared to wild type NgR
In short: (§1)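 COS-7 cells expressing Ala-substituted human NgR1 mutants incubated with AP-fused ligands at near-Kd levels (AP-Ng66 5 nM, AP-B4C66 0.5 nM, AP-Lingo-1 10 nM, AP-OMGP 10 nM). Bound AP stained and measured as % of wild-type NgR; graded ++/+/tr/−.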

NgR ligands = assay: Binding of alanine substituted NgR mutants to NgR ligands, summary categories; settings: AP-Nogo66, AP-B4C, AP-B4C66, AP-Lingo-1, AP-OMgp and AP-MAG; compared to wild type NgR
In short: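 Human NgR1 template; 74 mutants with 1-8 solvent-exposed charged surface residues (within 5 Å) Ala-substituted, plus glycosylation-site mutants and D259N polymorphism. Mutants tested for binding of AP-tagged Nogo66, Amino-Nogo-B4C, B4C66, MAG, OMgp and Lingo-1; each classed as losing all, keeping all, or selective ligand binding.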

AP-MAG = assay: Binding of AP-MAG to COS-7 cells expressing NgR mutants; design: key: ++: WT level; +: weaker than wild type; trace binding; −: no binding; settings: AP-MAG 30 nM; level of binding compared to wild type NgR
AP-B4C = molecular target: T2, AP-B4C; assay: Binding of AP-B4C to COS-7 cells expressing NgR mutants; design: key: ++: WT level; +: weaker than wild type; trace binding; −: no binding; settings: AP-B4C 10 nM; level of binding compared to wild type NgR
AP-OMgp = assay: Binding of AP-OMgp to COS-7 cells expressing NgR mutants; design: key: ++: WT level; +: weaker than wild type; trace binding; −: no binding; settings: AP-OMGP 10 nM; level of binding compared to wild type NgR
In short: as §1

[1] = molecular target: T3, AP fusion protein with the B4C fragment …; assay: AP-ligand binding, COS-7
[2] = molecular target: T4, AP-fused Amino-Nogo fragment B4C (a.a. …); assay: AP-ligand binding, COS-7
AP-Nogo-66 = molecular target: T5, AP-Nogo-66; assay: AP-ligand binding, COS-7
AP-B4C66 = assay: Binding of AP-B4C66 to COS-7 cells expressing NgR mutants; design: key: ++: WT level; +: weaker than wild type; trace binding; −: no binding; settings: AP-B4C66 0.5 nM; level of binding compared to wild type NgR
In short: as §1

AP-Nogo66 = molecular target: T6, AP-Nogo66; assay: Binding of AP-Nogo66 to COS-7 cells expressing NgR mutants; design: key: ++: WT level; +: weaker than wild type; trace binding; −: no binding; settings: AP-Ng66 5 nM; level of binding compared to wild type NgR
In short: as §1

| binding to DRG axons/neurons (E13 chick DRG neurons) | Lingo-1 (AP-Lingo-1) | ligand binding category of NgR mutant (Table II) (NgR ligands) | B4C (AP-B4C) | binding result [1] | binding result [2] | binding result (AP-Nogo-66) | Ng66 (AP-Nogo66) | Molecule | MAG (AP-MAG) | OMgp (AP-OMgp) | B4C-66 (AP-B4C66) |
| --- | --- | --- | --- | --- | --- | --- | --- | --- | --- | --- | --- |
| binding to DRG axons |  |  |  |  |  |  |  | IFSAELSKTSVVDLLYWRDIKKTG (not fully specified) [a.a. 995-1018 (Amino-Nogo-A-24), AP fusion protein of Nogo-A aa 995-1018] |  |  |  |
|  | ++ | Differential binding | − | no binding | no binding | no binding | − | human NgR1 alanine mutant 211, 213, 237, 256, 259, 284 (receptor) CPGACVCYNEPKVTTSCPQQGLQAVPVGIPAASQRIFLHGNRISHVPAASFRACRNLTILWLHSNVLARIDAAAFTGLALLEQLDLSDNAQLRSVDPATFHGLGRLHTLHLDRCGLQELGPGLFRGLAALQYLYLQDNALQALPDDTFRDLGNLTHLFLHGNRISSVPERAFRGLHSLDRLLLHANAVAHVHPHAFRDLGRLMTLYLFANALSALPTEALAPLRALQYLALNANPWVCDCRARPLWAWLQKFRGSSSAVPCSLPQRLAGRDLKRLAANDLQGCAVATGPYHPIWTGRATDEEPLGLPKCCQPDAADKASVLEPGRPASAGNALKGRVPPGDSPPGNGSGPRHINDSPFGTLPGSAEPPLTAVRPEGSEPPGFPTSGPRRRPGCSRKNRTRSHCRLGQAGSGGGGTGDSEGSGALPSLTCSLTPLGLALVLWTVLGPC | − | − | − |
|  | ++ | Differential binding | − | no binding | no binding | no binding | − | human NgR1 alanine mutant 189, 191, 211, 213, 237, 256, 259, 284 (receptor) CPGACVCYNEPKVTTSCPQQGLQAVPVGIPAASQRIFLHGNRISHVPAASFRACRNLTILWLHSNVLARIDAAAFTGLALLEQLDLSDNAQLRSVDPATFHGLGRLHTLHLDRCGLQELGPGLFRGLAALQYLYLQDNALQALPDDTFRDLGNLTHLFLHGNAIASVPERAFRGLHSLDRLLLHANAVAHVHPHAFRDLGRLMTLYLFANALSALPTEALAPLRALQYLALNANPWVCDCRARPLWAWLQKFRGSSSAVPCSLPQRLAGRDLKRLAANDLQGCAVATGPYHPIWTGRATDEEPLGLPKCCQPDAADKASVLEPGRPASAGNALKGRVPPGDSPPGNGSGPRHINDSPFGTLPGSAEPPLTAVRPEGSEPPGFPTSGPRRRPGCSRKNRTRSHCRLGQAGSGGGGTGDSEGSGALPSLTCSLTPLGLALVLWTVLGPC |  | − | − |
